Test results: article PMC10786891, “Massively parallel profiling of RNA-targeting CRISPR-Cas13d”

T1: EsCas13d, nuclease-dead (Eubacterium siraeum, UniProt B0MS50, R295A;H300A;R849A;H854A)
T1 sequence: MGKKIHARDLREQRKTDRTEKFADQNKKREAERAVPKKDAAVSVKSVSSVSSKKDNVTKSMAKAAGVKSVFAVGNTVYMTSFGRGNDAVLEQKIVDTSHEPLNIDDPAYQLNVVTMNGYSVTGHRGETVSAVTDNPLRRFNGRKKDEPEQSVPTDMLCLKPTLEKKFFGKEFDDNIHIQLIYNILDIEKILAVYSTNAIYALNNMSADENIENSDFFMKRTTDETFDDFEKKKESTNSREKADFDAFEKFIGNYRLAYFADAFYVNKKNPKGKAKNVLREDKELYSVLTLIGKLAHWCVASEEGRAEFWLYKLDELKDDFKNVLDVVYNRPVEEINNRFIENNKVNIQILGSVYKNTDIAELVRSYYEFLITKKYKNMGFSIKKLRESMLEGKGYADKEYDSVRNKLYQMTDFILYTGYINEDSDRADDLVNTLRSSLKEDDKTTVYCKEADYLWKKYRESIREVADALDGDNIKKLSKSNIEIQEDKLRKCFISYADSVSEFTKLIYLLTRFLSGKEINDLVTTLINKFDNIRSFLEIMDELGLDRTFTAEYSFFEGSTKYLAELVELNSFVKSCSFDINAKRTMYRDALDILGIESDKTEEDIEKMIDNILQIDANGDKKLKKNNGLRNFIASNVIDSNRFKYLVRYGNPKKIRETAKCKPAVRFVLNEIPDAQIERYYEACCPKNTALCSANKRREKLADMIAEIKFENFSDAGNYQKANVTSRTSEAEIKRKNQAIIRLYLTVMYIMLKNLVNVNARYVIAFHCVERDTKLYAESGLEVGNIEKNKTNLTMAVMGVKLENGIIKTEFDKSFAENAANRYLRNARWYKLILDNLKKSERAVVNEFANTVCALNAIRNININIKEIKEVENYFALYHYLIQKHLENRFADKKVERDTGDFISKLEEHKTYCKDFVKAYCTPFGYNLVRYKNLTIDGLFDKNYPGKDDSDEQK

B1: target 1 insA 3' of 22,insU 3' of 13 (mixed)
RNA 1: CACCCGUGCAAAAAUGCAGGGGUCUAAAACUGAGCGGAUAACCUCUCUAUGG
RNA 2: GGGAAUGGAUCCACAUCUACGAAUUCGUACACAUAGAGAGUGUUAUCCGCUCACCGAGAUCGGAAGAGCACACGU
B2: target 1 insA 3' of 15,insG 3' of 6 (mixed)
RNA 1: CACCCGUGCAAAAAUGCAGGGGUCUAAAACUGAGCGGAUAACCUCUCUAUGG
RNA 2: GGGAAUGGAUCCACAUCUACGAAUUCGUACCAUAGAGAAGGUUAUCCGGCUCACCGAGAUCGGAAGAGCACACGU
B3: target 1 insC 3' of 20,insC 3' of 9 (mixed)
RNA 1: CACCCGUGCAAAAAUGCAGGGGUCUAAAACUGAGCGGAUAACCUCUCUAUGG
RNA 2: GGGAAUGGAUCCACAUCUACGAAUUCGUACCACUAGAGAGGUUACUCCGCUCACCGAGAUCGGAAGAGCACACGU
B4: target 1 C2A,C6U (mixed)
RNA 1: CACCCGUGCAAAAAUGCAGGGGUCUAAAACUGAGCGGAUAACCUCUCUAUGG
RNA 2: GGGAAUGGAUCCACAUCUACGAAUUCGUACCAUAGAGAGGUUAUCUGCUAACCGAGAUCGGAAGAGCACACGU
B5: target 1 insC 3' of 15,insG 3' of 2 (mixed)
RNA 1: CACCCGUGCAAAAAUGCAGGGGUCUAAAACUGAGCGGAUAACCUCUCUAUGG
RNA 2: GGGAAUGGAUCCACAUCUACGAAUUCGUACCAUAGAGCAGGUUAUCCGCUCGACCGAGAUCGGAAGAGCACACGU
B6: target 1 C7U,U19A (mixed)
RNA 1: CACCCGUGCAAAAAUGCAGGGGUCUAAAACUGAGCGGAUAACCUCUCUAUGG
RNA 2: GGGAAUGGAUCCACAUCUACGAAUUCGUACCAAAGAGAGGUUAUUCGCUCACCGAGAUCGGAAGAGCACACGU
B7: target 1 insU 3' of 13,insU 3' of 2 (mixed)
RNA 1: CACCCGUGCAAAAAUGCAGGGGUCUAAAACUGAGCGGAUAACCUCUCUAUGG
RNA 2: GGGAAUGGAUCCACAUCUACGAAUUCGUACCAUAGAGAGUGUUAUCCGCUCUACCGAGAUCGGAAGAGCACACGU
B8: target 1 A9U,U10A (mixed)
RNA 1: CACCCGUGCAAAAAUGCAGGGGUCUAAAACUGAGCGGAUAACCUCUCUAUGG
RNA 2: GGGAAUGGAUCCACAUCUACGAAUUCGUACCAUAGAGAGGUAUUCCGCUCACCGAGAUCGGAAGAGCACACGU
B9: target 1 insC 3' of 11,insG 3' of 7 (mixed)
RNA 1: CACCCGUGCAAAAAUGCAGGGGUCUAAAACUGAGCGGAUAACCUCUCUAUGG
RNA 2: GGGAAUGGAUCCACAUCUACGAAUUCGUACCAUAGAGAGGUCUAUCGCGCUCACCGAGAUCGGAAGAGCACACGU
B10: target 1 insU 3' of 13,insC 3' of 5 (mixed)
RNA 1: CACCCGUGCAAAAAUGCAGGGGUCUAAAACUGAGCGGAUAACCUCUCUAUGG
RNA 2: GGGAAUGGAUCCACAUCUACGAAUUCGUACCAUAGAGAGUGUUAUCCGCCUCACCGAGAUCGGAAGAGCACACGU
B11: target 1 insC 3' of 18,insA 3' of 8 (mixed)
RNA 1: CACCCGUGCAAAAAUGCAGGGGUCUAAAACUGAGCGGAUAACCUCUCUAUGG
RNA 2: GGGAAUGGAUCCACAUCUACGAAUUCGUACCAUACGAGAGGUUAUACCGCUCACCGAGAUCGGAAGAGCACACGU
B12: target 1 G5A,G12U (mixed)
RNA 1: CACCCGUGCAAAAAUGCAGGGGUCUAAAACUGAGCGGAUAACCUCUCUAUGG
RNA 2: GGGAAUGGAUCCACAUCUACGAAUUCGUACCAUAGAGAGUUUAUCCACUCACCGAGAUCGGAAGAGCACACGU
B13: target 1 insU 3' of 17,insG 3' of 8 (mixed)
RNA 1: CACCCGUGCAAAAAUGCAGGGGUCUAAAACUGAGCGGAUAACCUCUCUAUGG
RNA 2: GGGAAUGGAUCCACAUCUACGAAUUCGUACCAUAGUAGAGGUUAUGCCGCUCACCGAGAUCGGAAGAGCACACGU
B14: target 1 C2G,G13U (mixed)
RNA 1: CACCCGUGCAAAAAUGCAGGGGUCUAAAACUGAGCGGAUAACCUCUCUAUGG
RNA 2: GGGAAUGGAUCCACAUCUACGAAUUCGUACCAUAGAGAUGUUAUCCGCUGACCGAGAUCGGAAGAGCACACGU
B15: target 1 insG 3' of 11,insA 3' of 8 (mixed)
RNA 1: CACCCGUGCAAAAAUGCAGGGGUCUAAAACUGAGCGGAUAACCUCUCUAUGG
RNA 2: GGGAAUGGAUCCACAUCUACGAAUUCGUACCAUAGAGAGGUGUAUACCGCUCACCGAGAUCGGAAGAGCACACGU
B16: target 1 G17A,C22A (mixed)
RNA 1: CACCCGUGCAAAAAUGCAGGGGUCUAAAACUGAGCGGAUAACCUCUCUAUGG
RNA 2: GGGAAUGGAUCCACAUCUACGAAUUCGUAACAUAAAGAGGUUAUCCGCUCACCGAGAUCGGAAGAGCACACGU
B17: target 1 C2U,U3C (mixed)
RNA 1: CACCCGUGCAAAAAUGCAGGGGUCUAAAACUGAGCGGAUAACCUCUCUAUGG
RNA 2: GGGAAUGGAUCCACAUCUACGAAUUCGUACCAUAGAGAGGUUAUCCGCCUACCGAGAUCGGAAGAGCACACGU
B18: target 1 C2U,U3G (mixed)
RNA 1: CACCCGUGCAAAAAUGCAGGGGUCUAAAACUGAGCGGAUAACCUCUCUAUGG
RNA 2: GGGAAUGGAUCCACAUCUACGAAUUCGUACCAUAGAGAGGUUAUCCGCGUACCGAGAUCGGAAGAGCACACGU
B19: target 1 insU 3' of 20,insC 3' of 11 (mixed)
RNA 1: CACCCGUGCAAAAAUGCAGGGGUCUAAAACUGAGCGGAUAACCUCUCUAUGG
RNA 2: GGGAAUGGAUCCACAUCUACGAAUUCGUACCAUUAGAGAGGUCUAUCCGCUCACCGAGAUCGGAAGAGCACACGU
B20: target 1 C4G,A9U (mixed)
RNA 1: CACCCGUGCAAAAAUGCAGGGGUCUAAAACUGAGCGGAUAACCUCUCUAUGG
RNA 2: GGGAAUGGAUCCACAUCUACGAAUUCGUACCAUAGAGAGGUUUUCCGGUCACCGAGAUCGGAAGAGCACACGU
B21: target 1 insG 3' of 18,insG 3' of 4 (mixed)
RNA 1: CACCCGUGCAAAAAUGCAGGGGUCUAAAACUGAGCGGAUAACCUCUCUAUGG
RNA 2: GGGAAUGGAUCCACAUCUACGAAUUCGUACCAUAGGAGAGGUUAUCCGCGUCACCGAGAUCGGAAGAGCACACGU
B22: target 1 complement block 3-6 (mixed)
RNA 1: CACCCGUGCAAAAAUGCAGGGGUCUAAAACUGAGCGGAUAACCUCUCUAUGG
RNA 2: GGGAAUGGAUCCACAUCUACGAAUUCGUACCAUAGAGAGGUUAUCGCGACACCGAGAUCGGAAGAGCACACGU
B23: target 1 insG 3' of 7,insU 3' of 4 (mixed)
RNA 1: CACCCGUGCAAAAAUGCAGGGGUCUAAAACUGAGCGGAUAACCUCUCUAUGG
RNA 2: GGGAAUGGAUCCACAUCUACGAAUUCGUACCAUAGAGAGGUUAUCGCGCUUCACCGAGAUCGGAAGAGCACACGU
B24: target 1 A9G,U19C (mixed)
RNA 1: CACCCGUGCAAAAAUGCAGGGGUCUAAAACUGAGCGGAUAACCUCUCUAUGG
RNA 2: GGGAAUGGAUCCACAUCUACGAAUUCGUACCACAGAGAGGUUGUCCGCUCACCGAGAUCGGAAGAGCACACGU
B25: target 1 C7A,G12C (mixed)
RNA 1: CACCCGUGCAAAAAUGCAGGGGUCUAAAACUGAGCGGAUAACCUCUCUAUGG
RNA 2: GGGAAUGGAUCCACAUCUACGAAUUCGUACCAUAGAGAGCUUAUACGCUCACCGAGAUCGGAAGAGCACACGU
B26: target 1 insU 3' of 13,insG 3' of 10 (mixed)
RNA 1: CACCCGUGCAAAAAUGCAGGGGUCUAAAACUGAGCGGAUAACCUCUCUAUGG
RNA 2: GGGAAUGGAUCCACAUCUACGAAUUCGUACCAUAGAGAGUGUUGAUCCGCUCACCGAGAUCGGAAGAGCACACGU
B27: target 1 insU 3' of 20,insU 3' of 5 (mixed)
RNA 1: CACCCGUGCAAAAAUGCAGGGGUCUAAAACUGAGCGGAUAACCUCUCUAUGG
RNA 2: GGGAAUGGAUCCACAUCUACGAAUUCGUACCAUUAGAGAGGUUAUCCGUCUCACCGAGAUCGGAAGAGCACACGU
B28: target 1 U3A,A9C (mixed)
RNA 1: CACCCGUGCAAAAAUGCAGGGGUCUAAAACUGAGCGGAUAACCUCUCUAUGG
RNA 2: GGGAAUGGAUCCACAUCUACGAAUUCGUACCAUAGAGAGGUUCUCCGCACACCGAGAUCGGAAGAGCACACGU

What follows are binders tested against T1, EsCas13d, nuclease-dead (assay: crRNA (strand 1, pre-loaded); Mg2+; 40 mM Tris-HCl pH 7.5, 150 mM NaCl, 6 mM MgCl2, 1 mM DTT, 0.1% Tween-20, 0.2 mg/ml BSA; 25 C; 10 min per concentration, then washed). Conditions: tags: His6-TwinStrep-SUMO cleaved; N-terminal SNAP kept (SNAP-Surface 488); label: 3' end held by stalled T7 RNA polymerase.

Row | Binder | Kd [nM]
1 | B1 | 20.6 ± 2.9
2 | B2 | 9.3 ± 0.5
3 | B3 | 8.9 ± 0.6
4 | B4 | 5.88 ± 0.27
5 | B5 | 17.9 ± 1.3
6 | B6 | 34 ± 4
7 | B7 | 16.6 ± 2.1
8 | B8 | 20.5 ± 2.1
9 | B9 | 23.8 ± 1.5
10 | B10 | 21 ± 4
11 | B11 | 69 ± 10
12 | B12 | 14.4 ± 1.4
13 | B13 | 21 ± 1.2
14 | B14 | ~60
15 | B15 | 40.5 ± 2.5
16 | B16 | 57 ± 7
17 | B17 | 16.6 ± 1.7
18 | B18 | 21 ± 4
19 | B19 | 62 ± 18
20 | B20 | 3.93 ± 0.23
21 | B21 | 37.5 ± 3.1
22 | B22 | 5.84 ± 0.3
23 | B23 | 6.4 ± 0.4
24 | B24 | 33.8 ± 3.3
25 | B25 | 16.4 ± 1.1
26 | B26 | 63 ± 23
27 | B27 | 24 ± 4
28 | B28 | 14.6 ± 2
